Paper PMC12751052

Molecular target: AcrIII-2 (second anti-CRISPR of type III systems), viral SAVED protein of Thermocrinis Great Boiling Spring virus (Thermocrinis Great Boiling Spring virus)
Experiment: crystal structure; apo AcrIII-2, X-ray, data to 1.79 Å; crystals from 1.2 M sodium dihydrogen phosphate, 0.8 M dipotassium hydrogen phosphate, 0.2 M lithium sulphate, 0.1 M CAPS pH 10, 293 K

AcrIII-2 (second anti-CRISPR of type III systems), viral SAVED protein of Thermocrinis Great Boiling Spring virus (natural protein)
stoichiometry N: 2
